Test results taken from paper PMC6177440, “Overlapping motifs on the herpes viral proteins ICP27 and ORF57 mediate interactions with the mRNA export adaptors ALYREF and UIF” (Scientific Reports, 2018).

T1: UIF N-terminal region (residues 1-190), recombinant (human, UniProt Q96QD9 1-190)
T1 construct: UIF, homo sapiens, Uniprot Q96QD9, residues 1-190, in pET-15b; source: T7 express E. coli, purified (TALON resin, size exclusion chromatography)
T1 sequence (looked up): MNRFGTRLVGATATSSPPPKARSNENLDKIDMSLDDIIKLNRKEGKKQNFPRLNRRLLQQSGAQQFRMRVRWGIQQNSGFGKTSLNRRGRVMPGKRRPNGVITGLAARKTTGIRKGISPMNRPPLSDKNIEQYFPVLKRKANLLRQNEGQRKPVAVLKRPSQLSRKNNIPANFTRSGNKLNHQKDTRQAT

T2: KSHV ORF57 residues 153-455 (KSHV, UniProt Q2HR75 153-455)
T2 construct: ORF57 of Kaposi sarcoma herpes virus (KSHV), residues 153-455, in pET-21a; The strep-II-tag and HRV-3C site lay between thioredoxin and ORF57; also called ksORF57Δ153; ORF57Δ153; source: T7 express E. coli, purified (strep-tag resin, HRV-3C cleavage, size exclusion chromatography); not shown: thioredoxin, N-terminal, cleaved; strep-II, N-terminal, cleaved
T2 sequence: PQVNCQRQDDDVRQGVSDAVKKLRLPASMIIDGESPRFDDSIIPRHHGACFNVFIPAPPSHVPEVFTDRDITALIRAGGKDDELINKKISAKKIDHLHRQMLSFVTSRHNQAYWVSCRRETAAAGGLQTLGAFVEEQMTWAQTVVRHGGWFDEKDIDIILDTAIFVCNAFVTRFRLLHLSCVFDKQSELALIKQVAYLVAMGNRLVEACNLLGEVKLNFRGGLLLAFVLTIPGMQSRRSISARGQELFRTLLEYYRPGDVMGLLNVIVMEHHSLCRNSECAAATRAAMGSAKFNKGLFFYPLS

B1: REF2-I (murine variant of ALYREF) residues 1-155 (domain or fragment)
chain: not shown
notes: Used 15N labelled or unlabelled; source: purified

Experiments:
Conditions in all cases: both partners purified
[1] = biological target: B1; assay: NMR titration; 15N HSQC of the 15N labelled protein (target) without and with an equimolar amount of the unlabelled partner (binder); ca. 50 µM; 20 mM sodium phosphate, 50 mM NaCl, 50 mM L-Arg, 50 mM L-Glu, 1 mM EDTA, 2 mM TCEP, pH 6.2; 298 K
[2] = biological target: T1, UIF N-terminal region (residues 1-190), …; assay: as above
[3] = biological target: T2, KSHV ORF57 residues 153-455; assay: NMR titration; 15N HSQC of the 15N labelled REF2-I construct (target) without and with unlabelled ICP27Δ241 or ksORF57Δ153 (binder); ca. 50 µM; NMR buffer with EDTA decreased to 0.1 mM, pH 6.2; 298 K

| Binder | binding result [1] | binding result [2] | binding result [3] |
| --- | --- | --- | --- |
| KSHV ORF57 residues 68-178 (domain or fragment, ORF57 of Kaposi sarcoma herpes virus (KSHV), residues 68-178, in pET-15b; Used 15N labelled or unlabelled; also called ksORF57^68–178) GRIPKKSQGRSQLRSEIQFCSPLSRPRSPSPVNRYGKKIKFGTAGQNTRPPPEKRPRRRPRDRLQYGRTTRGGQCRAAPKRATRRPQVNCQRQDDDVRQGVSDAVKKLRLP | binds | binds | – |
| B1 | – | – | binds |
| HSV-1 ICP27 residues 103-155 (domain or fragment, ICP27 of HSV-1, residues 103-155; Used 15N labelled; also called ICP27^103–155; source: purified) SVWSRLGARRPSCSPEQHGGKVARLQPPPTKAQPARGGRRGRRRGRGRGGPGA | binds | binds | – |
